# Data reported in patent publication US20250114463A1, “LIVER-TARGETED DRUG AND USE THEREOF” (HANMI PHARM. CO., LTD., priority 2021, published 2025).
# Changes are numbered by the printed parent chain. Bridges are numbered along the chain shown (N, C = ends). Where no end group is shown, it is not given here. [ ]: non-standard residue; d: D form. Aib = CC(C)(N)C(=O)O
# T1: human GIP receptor (human, UniProt P48546 22-466)
# T1 sequence (looked up): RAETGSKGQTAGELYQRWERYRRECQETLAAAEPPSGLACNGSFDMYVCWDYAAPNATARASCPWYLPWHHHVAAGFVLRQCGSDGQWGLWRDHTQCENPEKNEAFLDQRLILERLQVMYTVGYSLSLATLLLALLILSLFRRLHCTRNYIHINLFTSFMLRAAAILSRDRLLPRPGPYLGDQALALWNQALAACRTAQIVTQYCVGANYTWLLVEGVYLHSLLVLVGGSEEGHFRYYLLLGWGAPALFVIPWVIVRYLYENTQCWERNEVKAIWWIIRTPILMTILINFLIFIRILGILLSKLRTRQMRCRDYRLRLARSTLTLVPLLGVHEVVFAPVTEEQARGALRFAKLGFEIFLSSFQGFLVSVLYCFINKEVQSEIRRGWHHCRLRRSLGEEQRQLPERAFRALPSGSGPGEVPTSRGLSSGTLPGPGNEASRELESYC
# B1: triple agonist of SEQ ID NO: 4 (peptide)
# peptide: HXQGTFTSDVSSYLLGQQQKEFIAWLVKGC
# HELM: PEPTIDE1{H.[Aib].Q.G.T.F.T.S.D.V.S.S.Y.L.L.G.Q.Q.Q.K.E.F.I.A.W.L.V.K.G.C.[am]}$$$$V2.0; N-terminus assumed
# SMILES: CC[C@H](C)[C@H](NC(=O)[C@H](Cc1ccccc1)NC(=O)[C@H](CCC(=O)O)NC(=O)[C@H](CCCCN)NC(=O)[C@H](CCC(N)=O)NC(=O)[C@H](CCC(N)=O)NC(=O)[C@H](CCC(N)=O)NC(=O)CNC(=O)[C@H](CC(C)C)NC(=O)[C@H](CC(C)C)NC(=O)[C@H](Cc1ccc(O)cc1)NC(=O)[C@H](CO)NC(=O)[C@H](CO)NC(=O)[C@@H](NC(=O)[C@H](CC(=O)O)NC(=O)[C@H](CO)NC(=O)[C@@H](NC(=O)[C@H](Cc1ccccc1)NC(=O)[C@@H](NC(=O)CNC(=O)[C@H](CCC(N)=O)NC(=O)C(C)(C)NC(=O)[C@@H](N)Cc1c[nH]cn1)[C@@H](C)O)[C@@H](C)O)C(C)C)C(=O)N[C@@H](C)C(=O)N[C@@H](Cc1c[nH]c2ccccc12)C(=O)N[C@@H](CC(C)C)C(=O)N[C@H](C(=O)N[C@@H](CCCCN)C(=O)NCC(=O)N[C@@H](CS)C(N)=O)C(C)C
# B2: triple agonist of SEQ ID NO: 36 (peptide)
# peptide: H[Aib]QGTFTSDYSKYLCEKRQKEFVQWLLNGGPSSGAPPPSG
# modifications: bridge 16-20; not fully specified (C-terminus)
# B3: triple agonist of SEQ ID NO: 1 (peptide)
# peptide: B1 peptide with L15D, Q18A, Q19A
# HELM: PEPTIDE1{H.[Aib].Q.G.T.F.T.S.D.V.S.S.Y.L.D.G.Q.A.A.K.E.F.I.A.W.L.V.K.G.C.[am]}$$$$V2.0; N-terminus assumed
# SMILES: CC[C@H](C)[C@H](NC(=O)[C@H](Cc1ccccc1)NC(=O)[C@H](CCC(=O)O)NC(=O)[C@H](CCCCN)NC(=O)[C@H](C)NC(=O)[C@H](C)NC(=O)[C@H](CCC(N)=O)NC(=O)CNC(=O)[C@H](CC(=O)O)NC(=O)[C@H](CC(C)C)NC(=O)[C@H](Cc1ccc(O)cc1)NC(=O)[C@H](CO)NC(=O)[C@H](CO)NC(=O)[C@@H](NC(=O)[C@H](CC(=O)O)NC(=O)[C@H](CO)NC(=O)[C@@H](NC(=O)[C@H](Cc1ccccc1)NC(=O)[C@@H](NC(=O)CNC(=O)[C@H](CCC(N)=O)NC(=O)C(C)(C)NC(=O)[C@@H](N)Cc1c[nH]cn1)[C@@H](C)O)[C@@H](C)O)C(C)C)C(=O)N[C@@H](C)C(=O)N[C@@H](Cc1c[nH]c2ccccc12)C(=O)N[C@@H](CC(C)C)C(=O)N[C@H](C(=O)N[C@@H](CCCCN)C(=O)NCC(=O)N[C@@H](CS)C(N)=O)C(C)C
# B4: triple agonist of SEQ ID NO: 37 (peptide)
# peptide: H[Aib]QGTFTSDYSKYLDECRQKEFVQWLLNGGPSSGAPPPSG
# modifications: bridge 16-20; not fully specified (C-terminus)
# B5: triple agonist of SEQ ID NO: 35 (peptide)
# peptide: H[Aib]QGTFTSDYSIAMDEIHQKDFVNWLLNTKC
# modifications: bridge 16-20; not fully specified (C-terminus)
# B6: triple agonist of SEQ ID NO: 40 (peptide)
# peptide: HXQGTFTSDKSKYLDERACQDFVQWLLDGGPSSGAPPPS
# HELM: PEPTIDE1{H.[Aib].Q.G.T.F.T.S.D.K.S.K.Y.L.D.E.R.A.C.Q.D.F.V.Q.W.L.L.D.G.G.P.S.S.G.A.P.P.P.S.[am]}$$$$V2.0; N-terminus assumed
# SMILES: CC(C)C[C@H](NC(=O)[C@H](CC(C)C)NC(=O)[C@H](Cc1c[nH]c2ccccc12)NC(=O)[C@H](CCC(N)=O)NC(=O)[C@@H](NC(=O)[C@H](Cc1ccccc1)NC(=O)[C@H](CC(=O)O)NC(=O)[C@H](CCC(N)=O)NC(=O)[C@H](CS)NC(=O)[C@H](C)NC(=O)[C@H](CCCNC(=N)N)NC(=O)[C@H](CCC(=O)O)NC(=O)[C@H](CC(=O)O)NC(=O)[C@H](CC(C)C)NC(=O)[C@H](Cc1ccc(O)cc1)NC(=O)[C@H](CCCCN)NC(=O)[C@H](CO)NC(=O)[C@H](CCCCN)NC(=O)[C@H](CC(=O)O)NC(=O)[C@H](CO)NC(=O)[C@@H](NC(=O)[C@H](Cc1ccccc1)NC(=O)[C@@H](NC(=O)CNC(=O)[C@H](CCC(N)=O)NC(=O)C(C)(C)NC(=O)[C@@H](N)Cc1c[nH]cn1)[C@@H](C)O)[C@@H](C)O)C(C)C)C(=O)N[C@@H](CC(=O)O)C(=O)NCC(=O)NCC(=O)N1CCC[C@H]1C(=O)N[C@@H](CO)C(=O)N[C@@H](CO)C(=O)NCC(=O)N[C@@H](C)C(=O)N1CCC[C@H]1C(=O)N1CCC[C@H]1C(=O)N1CCC[C@H]1C(=O)N[C@@H](CO)C(N)=O
# B7: triple agonist of SEQ ID NO: 39 (peptide)
# peptide: HXQGTFTSDYSKYLDGQHAQCFVAWLLAGGGPSSGAPPPS
# HELM: PEPTIDE1{H.[Aib].Q.G.T.F.T.S.D.Y.S.K.Y.L.D.G.Q.H.A.Q.C.F.V.A.W.L.L.A.G.G.G.P.S.S.G.A.P.P.P.S.[am]}$$$$V2.0; N-terminus assumed
# SMILES: CC(C)C[C@H](NC(=O)[C@H](CC(C)C)NC(=O)[C@H](Cc1c[nH]c2ccccc12)NC(=O)[C@H](C)NC(=O)[C@@H](NC(=O)[C@H](Cc1ccccc1)NC(=O)[C@H](CS)NC(=O)[C@H](CCC(N)=O)NC(=O)[C@H](C)NC(=O)[C@H](Cc1c[nH]cn1)NC(=O)[C@H](CCC(N)=O)NC(=O)CNC(=O)[C@H](CC(=O)O)NC(=O)[C@H](CC(C)C)NC(=O)[C@H](Cc1ccc(O)cc1)NC(=O)[C@H](CCCCN)NC(=O)[C@H](CO)NC(=O)[C@H](Cc1ccc(O)cc1)NC(=O)[C@H](CC(=O)O)NC(=O)[C@H](CO)NC(=O)[C@@H](NC(=O)[C@H](Cc1ccccc1)NC(=O)[C@@H](NC(=O)CNC(=O)[C@H](CCC(N)=O)NC(=O)C(C)(C)NC(=O)[C@@H](N)Cc1c[nH]cn1)[C@@H](C)O)[C@@H](C)O)C(C)C)C(=O)N[C@@H](C)C(=O)NCC(=O)NCC(=O)NCC(=O)N1CCC[C@H]1C(=O)N[C@@H](CO)C(=O)N[C@@H](CO)C(=O)NCC(=O)N[C@@H](C)C(=O)N1CCC[C@H]1C(=O)N1CCC[C@H]1C(=O)N1CCC[C@H]1C(=O)N[C@@H](CO)C(N)=O
# B8: triple agonist of SEQ ID NO: 34 (peptide)
# peptide: H[Aib]QGTFTSDYSKYLDEKRQKEFVNWLLAQKC
# modifications: bridge 16-20; not fully specified (C-terminus)
# B9: triple agonist of SEQ ID NO: 38 (peptide)
# peptide: XXQGTFTSDKSSYLDERAAQDFVQWLLDGGPSSGAPPPSS
# HELM: PEPTIDE1{[O=C(Cc1c[nH]cn1)[*:2]].[Aib].Q.G.T.F.T.S.D.K.S.S.Y.L.D.E.R.A.A.Q.D.F.V.Q.W.L.L.D.G.G.P.S.S.G.A.P.P.P.S.S.[am]}$$$$V2.0
# SMILES: CC(C)C[C@H](NC(=O)[C@H](CC(C)C)NC(=O)[C@H](Cc1c[nH]c2ccccc12)NC(=O)[C@H](CCC(N)=O)NC(=O)[C@@H](NC(=O)[C@H](Cc1ccccc1)NC(=O)[C@H](CC(=O)O)NC(=O)[C@H](CCC(N)=O)NC(=O)[C@H](C)NC(=O)[C@H](C)NC(=O)[C@H](CCCNC(=N)N)NC(=O)[C@H](CCC(=O)O)NC(=O)[C@H](CC(=O)O)NC(=O)[C@H](CC(C)C)NC(=O)[C@H](Cc1ccc(O)cc1)NC(=O)[C@H](CO)NC(=O)[C@H](CO)NC(=O)[C@H](CCCCN)NC(=O)[C@H](CC(=O)O)NC(=O)[C@H](CO)NC(=O)[C@@H](NC(=O)[C@H](Cc1ccccc1)NC(=O)[C@@H](NC(=O)CNC(=O)[C@H](CCC(N)=O)NC(=O)C(C)(C)NC(=O)Cc1c[nH]cn1)[C@@H](C)O)[C@@H](C)O)C(C)C)C(=O)N[C@@H](CC(=O)O)C(=O)NCC(=O)NCC(=O)N1CCC[C@H]1C(=O)N[C@@H](CO)C(=O)N[C@@H](CO)C(=O)NCC(=O)N[C@@H](C)C(=O)N1CCC[C@H]1C(=O)N1CCC[C@H]1C(=O)N1CCC[C@H]1C(=O)N[C@@H](CO)C(=O)N[C@@H](CO)C(N)=O
# Target: human GLP-1 receptor (human, UniProt P43220 24-463)
# Assay: cell-based or functional assay
row,Binder,"in vitro Activity Compared to Native Peptide (%), vs GLP-1 [%]"
1,B1,8.5
2,B2,37.4
3,B3,3.2
4,B4,236
5,B5,7.5
6,B6,75.2
7,B7,13.9
8,B8,19.1
9,B9,2.3

# Target: human GCG receptor (human, UniProt P47871 26-477)
# Sequence (P47871 26-477): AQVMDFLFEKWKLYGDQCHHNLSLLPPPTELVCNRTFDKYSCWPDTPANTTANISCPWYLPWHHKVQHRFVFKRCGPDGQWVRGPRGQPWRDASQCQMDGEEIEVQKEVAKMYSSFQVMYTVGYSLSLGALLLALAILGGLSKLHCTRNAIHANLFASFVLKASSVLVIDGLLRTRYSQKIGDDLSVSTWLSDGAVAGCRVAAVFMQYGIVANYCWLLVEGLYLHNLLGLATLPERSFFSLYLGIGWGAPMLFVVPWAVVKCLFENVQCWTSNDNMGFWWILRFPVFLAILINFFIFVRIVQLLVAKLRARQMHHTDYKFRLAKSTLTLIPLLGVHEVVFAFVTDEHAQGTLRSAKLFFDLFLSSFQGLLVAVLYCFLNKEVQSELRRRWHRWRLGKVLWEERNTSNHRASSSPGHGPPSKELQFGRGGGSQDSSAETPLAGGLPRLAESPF
# Assay: cell-based or functional assay
row,Binder,"in vitro Activity Compared to Native Peptide (%), vs Glucagon [%]"
1,B1,< 0.1
2,B2,0.39
3,B3,< 0.1
4,B4,6.21
5,B5,< 0.1
6,B6,< 0.1
7,B7,0.53
8,B8,0.92

# Target: T1, human GIP receptor
# Assay: cell-based or functional assay
row,Binder,"in vitro Activity Compared to Native Peptide (%), vs GIP [%]"
1,B1,< 0.1
2,B2,0.2
3,B3,< 0.1
4,B4,2.2
5,B5,1.3
6,B6,< 0.1
7,B7,< 0.1
8,B8,0.6
